According to patent US7148193B2, “Compounds that bind to growth hormone receptor” (Antyra, Inc., priority 1997, dated 2006):
“And” between values parts separate entries of the source, which are not always exact repeats. Equal values may be shown once. Read-outs that look alike come from different tables or passages of the source.

What was measured:
[1] = target: T1, ‘hu’ GHBP (Rattus norvegicus, UniProt P16310, L61R); assay: Species specificity of binding by ELISA and BIAcore, 'hu' GHBP; conditions: in words
T1 construct: 1–48 of GHBP; The 3′ oligo used for this reaction encoded the mutation L43R (CTG→AGA); The second PCR reaction amplified the DNA encoding amino acids 38–260; 6xHis; made in house
T1 sequence (P16310 19-278 isoform P16310-2 L61R): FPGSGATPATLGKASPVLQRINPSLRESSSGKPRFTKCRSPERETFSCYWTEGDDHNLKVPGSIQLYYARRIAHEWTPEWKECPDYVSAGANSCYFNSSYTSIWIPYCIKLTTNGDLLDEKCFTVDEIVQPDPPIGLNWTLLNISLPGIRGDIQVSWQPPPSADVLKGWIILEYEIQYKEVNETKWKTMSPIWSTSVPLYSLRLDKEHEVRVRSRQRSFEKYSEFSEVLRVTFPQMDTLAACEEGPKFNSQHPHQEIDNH
Procedure: Wells were coated with either recombinant rGHBP or ‘hu’ GHBP (100 ng/well). Additions of H5 (SEQ ID NO:8) and H10 (SEQ ID NOS:9, 80, and 81) phage (10^10/well) and detection were made as described. […] Streptavidin chips were coated with H5 (SEQ ID NO:8) to 1100 RU as described and rGHBP or ‘hu’ GHBP (500 μg/ml) injected as 30 μl samples.
Growth hormone receptors from different species bind human GH as well as their own GH, however human GHR only binds human or monkey GH. […] The sequence of rGHBP was altered by PCR to create a “humanized” version (‘hu’ GHBP; FIG. 9A). Partially purified ‘hu’GHBP (FIG. 9B) was tested for binding using ELISA and BIAcore analysis. […] This was confirmed by BIAcore analysis (FIG. 10B).
The biotinylated control peptide (SEQ ID NO:10) was immobilized onto one flow cell of a SA-5 (streptavidin coated) sensor chip to a final density of 700 RU. On a second flow cell, either hGH (1100 RU final density), H5WT peptide (SEQ ID NO:8; 1100 RU final density), or bGH (730 RU final density) was immobilized. GHBP (either rat or humanized) was injected at a concentration of 500 μg/ml with a flow rate of 5 μl/min. Background binding to the control surface was subtracted prior to further analysis.

[2] = target: T2, ‘hu’ GHBP (humanized rat GHBP) (Rattus norvegicus, UniProt P16310, L61R); assay: Phage ELISA binding and competition on 'hu' GHBP coated wells; conditions: ELISA signal
T2 construct: 1–48 of GHBP; The 3′ oligo used for this reaction encoded the mutation L43R (CTG→AGA); The second PCR reaction amplified the DNA encoding amino acids 38–260; 6xHis; made in house
T2 sequence (P16310 19-278 isoform P16310-2 L61R): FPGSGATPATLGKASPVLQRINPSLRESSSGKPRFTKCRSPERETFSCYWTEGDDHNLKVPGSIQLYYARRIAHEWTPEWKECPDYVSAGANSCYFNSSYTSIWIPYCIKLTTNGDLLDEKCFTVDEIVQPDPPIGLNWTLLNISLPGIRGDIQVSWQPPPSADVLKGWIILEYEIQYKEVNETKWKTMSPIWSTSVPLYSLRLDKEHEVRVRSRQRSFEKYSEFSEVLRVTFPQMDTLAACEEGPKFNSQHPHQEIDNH
Procedure: For analysis of individual clones, colonies were picked and phage prepared as described above. Microtiter wells were coated and blocked as described above. Wells were coated with either rGHBP or a control IgG MAb. Phage resuspended in MPBS were added to duplicate wells (100 μl/well) and incubated at room temperature for 1 hr. The phage solution was then removed, and the wells were washed three times with PBS at room temperature. Anti-M13 antibody conjugated to horseradish peroxidase (Pharmacia Biotech) was diluted 1:3000 in MPBS and added to each well (100 μl/well). Incubation was for another hour at room temperature, followed by PBS washes as described. Color was developed by addition of ABTS solution (100 μl/well; Boehringer). Color development was stopped by adjusting each well to 0.5% SDS. Plates were analyzed at 405 nm using a SpectraMax 340 plate reader (Molecular Devices) and SoftMax Pro software. Data points were averaged after subtraction of appropriate blanks. A clone was considered “positive” if the A405 of the well was >2-fold over background.
Humanized GHBP (‘hu’ GHBP) contained the single amino acid change of rat GHBP amino acids L43 to R43, and was capable of binding human GH, as shown in FIG. 9. Direct immobilization of ‘hu’ GHBP was done as described earlier for panning of the secondary H5 library against rat GHBP and used inputs of ‘hu’ GHBP, prepared as described earlier of 100 μl per well of […] protein. Panning was performed with or without H10 peptide (SEQ ID NO:9; 30 μM) for 4 rounds, and 96 clones were picked.
(§1) Clones were tested for the presence of E-tag and binding to ‘hu’ GHBP, rGHBP, or BSA-coated wells. Those having specific GHBP binding (i.e., at least 2 fold greater binding to the GHBP than BSA) and with an E-tag positive signal were subjected to DNA sequencing. Three different clones were isolated and tested a second time against GHBP plus and minus GH (1 μM) or BSA (1 μM) coated wells as described. In these tests, huGH was used as competitor with ‘hu’ GHBP coated wells and bovineGH was used as a competitor with rat GHBP coated wells. […] The following open reading frame insertion including the DYKD (SEQ ID NO:79) amino terminal tag and up to the C-terminal E-tag was obtained for these clones; and is shown in Table III: […]

[3] = target: T3, rGHBP (Rattus norvegicus, UniProt P16310); assay: Time-resolved fluorometric detection (TRFD) of specific bLigand binding to rGHBP and its competition; conditions: for IC50: competitor added 1 hr before bLigand
T3 construct: 1–48 of GHBP; The 3′ oligo used for this reaction encoded the mutation L43R (CTG→AGA); The second PCR reaction amplified the DNA encoding amino acids 38–260; 6xHis; made in house
T3 sequence (P16310 19-278 isoform P16310-2): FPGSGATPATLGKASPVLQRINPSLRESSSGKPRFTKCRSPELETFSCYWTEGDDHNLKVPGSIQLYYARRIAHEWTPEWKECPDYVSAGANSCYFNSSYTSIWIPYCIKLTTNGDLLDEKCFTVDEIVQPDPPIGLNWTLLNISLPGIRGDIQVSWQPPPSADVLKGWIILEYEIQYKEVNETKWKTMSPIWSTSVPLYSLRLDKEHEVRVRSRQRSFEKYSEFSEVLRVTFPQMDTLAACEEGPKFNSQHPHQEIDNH
Procedure: For this invention, saEu forms a ternary complex with bP and rGHBP (i.e., the rGHBP:bP:saEu complex). As described herein, the TRFD assay is performed using biotinylated GH (bGH) as bLigand. Biotinylated H5-mutant peptides bP#447 (SEQ ID NO:11) and bP#418 (SEQ ID NO:12) are also used as bLigand (see below). The TRFD assay described herein faithfully reports the competition of ligand binding to the active site of rGHR. To perform the TRFD assays, soluble rGHBP is attached to the surface of microtiter wells, then incubated with bP. Unbound bP is than washed away and (sa)Eu is added to complex with receptor bound bP. The rGHBP:bP bound (sa)Eu is then converted into its highly fluorescent state and detected by TRFD.
Wells were coated with rGHBP(100 ng/well) overnight as described. ED50 and IC50 were calculated from analysis of specific bLigand binding to rGHBP. Competitors were added 1 hr prior to addition of bLigand as described.
rGHBP (50–200 μg/ml in 50 mM NaHCO3) was coated onto low-fluorescence MaxiSorp (Nunc) plates (100 μl/well) overnight at 4° C. The plates were blocked with PBS containing 2% non-fat milk and 0.05% BSA for 2 hr at room temperature, followed by three PBS washes. For competitions, serial dilutions of unlabelled growth hormone (0.1 nM-100 nM) or MAb 2C3 (0.67–67 nM) were added to the plates (100 μl/well) and incubated at room temperature for 1–2 hr. Biotinylated peptide or biotinylated GH (10× concentrations) were incubated in blocking buffer for 30 min to decrease non-specific binding. Ten microliters of the 10× concentrated material was added to the plates and incubated at room temperature for 1 hr to overnight.
The plates were then washed five times with Tris-buffered saline (pH 7.5) containing 0.1% Tween-20 (TTBS). To each well, 100 μl of europium-labeled streptavidin in DELFIA assay buffer (100 mM Tris-HCl, pH 7.8; 150 mM NaCl; 0.5% BSA; 0.05% bovine Ig; 0.05% NaN3; 0.01% Tween-20) was added and incubated for 1.5 hr at room temperature. The plates were then washed five times with TTBS and tapped dry. Subsequently, 100 μl of DELFIA enhancement solution (100 mM acetone-potassium hydrogen phthalate, pH 3.2; 15 mM 2-naphtyltrifluoroacetate; […] tri(n-octyl)-phosphine oxide; 0.1% Triton X-100) was added to each well, and the plates were shaken for 10 min at room temperature. Fluorescence of each sample well was measured at 615 nm using a DELFIA 1234 fluorometer (EG&G Wallac). General procedure and references as described by Wallac are available in “Lanthanide labeling for time-resolved fluorometry”: Wallac publication 1244–1126-03.

[4] = target: T3, rGHBP; assay: Phage ELISA binding and competition on rGHBP coated wells; conditions: ELISA signal
Procedure: For analysis of individual clones, colonies were picked and phage prepared as described above. Microtiter wells were coated and blocked as described above. Wells were coated with either rGHBP or a control IgG MAb. Phage resuspended in MPBS were added to duplicate wells (100 μl/well) and incubated at room temperature for 1 hr. The phage solution was then removed, and the wells were washed three times with PBS at room temperature. Anti-M13 antibody conjugated to horseradish peroxidase (Pharmacia Biotech) was diluted 1:3000 in MPBS and added to each well (100 μl/well). Incubation was for another hour at room temperature, followed by PBS washes as described. Color was developed by addition of ABTS solution (100 μl/well; Boehringer). Color development was stopped by adjusting each well to 0.5% SDS. Plates were analyzed at 405 nm using a SpectraMax 340 plate reader (Molecular Devices) and SoftMax Pro software. Data points were averaged after subtraction of appropriate blanks. A clone was considered “positive” if the A405 of the well was >2-fold over background. […]
These clones were next analyzed for binding to the receptor's active sites (FIG. 2B). Competitions of phage binding were done both with the cognate ligand (i.e., GH) and with a specific target-neutralizing MAb 2C3 (Wang, B. S., et al. Mol. Cellular Endocrinology, vol. 116, p. 223–226, 1996).
as §1

## human GH: human growth hormone
[1]
  binding to ‘hu’ GHBP: bound to human GH

## 445: H5-mutant peptide SEQ ID NO:13 (DYKDLCQRLGVGWPGWLAGWCA; #445 peptide) [compound 445]
[2]; BSA 1 μM
  ELISA Competition, ‘hu’GHBP, +BSA: 0.11
[2]; huGH 1 μM as competitor
  ELISA Competition, ‘hu’GHBP, +hGH: 0.12
[2]; no competitor
  ELISA Competition, ‘hu’GHBP, none: 0.14
[3]; TRFD
  saturation of receptors: could not be saturated
[4]; BSA 1 μM
  ELISA Competition, rGHBP, +BSA: 0.44
[4]; bovine GH 1 μM as competitor
  ELISA Competition, rGHBP, +bGH: 0.16
[4]; no competitor
  ELISA Competition, rGHBP, none: 0.45

## C[S+](C)[O-] [DMSO]
[3]; TRFD, DMSO effect on bGH binding
  IC50 vs. bGH: >>3%
[3]; TRFD, DMSO effect on bP#418 binding
  IC50 vs. bP#418 (SEQ ID NO: 12): >>3%
[3]; TRFD, DMSO effect on bP#447 binding
  IC50 vs. bP#447 (SEQ ID NO: 11): >>3%
[3]; specific binding of bGH (3 nM), bP#447 (0.3 μM) and bP#418 (0.3 μM), 0 to 20% DMSO
  DMSO IC50: > 15 % (v/v)

B1: GH: non-biotinylated growth hormone, the cognate ligand of GHBP (protein, UniProt P01244 27-216, looked up)
Somatotropin: FPAMPLSSLFANAVLRAQHLHQLAADTYKEFERAYIPEGQRYSIQNAQAAFCFSETIPAPTGKEEAQQRTDMELLRFSLLLIQSWLGPVQFLSRIFTNSLMFGTSDRVYEKLKDLEEGIQALMQELEDGSPRIGQILKQTYDKFDANMRSDDALLKNYGLLSCFKKDLHKAETYLRVMKCRRFAESSCAF
[3]; TRFD, competition of bGH (2 nM) binding, read-out: IC50 vs. bGH
  IC50: 5 nM
[3]; TRFD, competition of bP#418 (300 nM) binding, read-out: IC50 vs. bP#418 (SEQ ID NO: 12)
  IC50: 2 nM
[3]; TRFD, competition of bP#447 (300 nM) binding, read-out: IC50 vs. bP#447 (SEQ ID NO: 11)
  IC50: 0.4 nM

B2: rat GH: rat growth hormone (protein, UniProt P01244 27-216, looked up)
Somatotropin: FPAMPLSSLFANAVLRAQHLHQLAADTYKEFERAYIPEGQRYSIQNAQAAFCFSETIPAPTGKEEAQQRTDMELLRFSLLLIQSWLGPVQFLSRIFTNSLMFGTSDRVYEKLKDLEEGIQALMQELEDGSPRIGQILKQTYDKFDANMRSDDALLKNYGLLSCFKKDLHKAETYLRVMKCRRFAESSCAF
[1]
  binding to ‘hu’ GHBP: failed to bind

B3: bGH: biotinylated GH used as bLigand in the TRFD assay (protein, UniProt P01244 27-216, looked up)
Somatotropin: FPAMPLSSLFANAVLRAQHLHQLAADTYKEFERAYIPEGQRYSIQNAQAAFCFSETIPAPTGKEEAQQRTDMELLRFSLLLIQSWLGPVQFLSRIFTNSLMFGTSDRVYEKLKDLEEGIQALMQELEDGSPRIGQILKQTYDKFDANMRSDDALLKNYGLLSCFKKDLHKAETYLRVMKCRRFAESSCAF
modifications: biotin
notes: biotinylated GH used as bLigand in the TRFD assay
[3]; TRFD, wells coated with rGHBP 100 ng/well, read-out: ED50 (half-maximum specific binding)
  EC50: ~20 nM and 20 nM

B4: bovine GH: bovine growth hormone (protein)
chain: AFPAMSLSGLFANAVLRAQHLHQLAADTFKEFERTYIPEGQRYSIQNTQVAFCFSETIPAPTGKNEAQQKSDLELLRISLLLIQSWLGPLQFLSRVFTNSLVFGTSDRVYEKLKDLEEGILALMRELEDGTPRAGQILKQTYDKFDTNMRSDDALLKNYGLLSCFRKDLHKTETYLRVMKCRRFGEASCAF
[1]
  binding to ‘hu’ GHBP: failed to bind
